Publication PMC6118821

Target: Nucleosome with symmetrical linkers of 14 base pairs (nucleosome of the 2Chd1:1Nucleosome complex) (Xenopus laevis)
Assay: cryo-EM structure; 2:1 complex of ScChd1(1-1305Δ57–88) and a nucleosome with symmetrical 14 bp linkers, ADP-BeFx; envelope at 10-11 Å, two Chd1 and a nucleosome rigid-body docked

- stoichiometry N: 2
Substance: ScChd1(1-1305Δ57–88) (from UniProt P32657 1-1305) (enzyme)
